Test results reported in patent publication US9724426B2, “Agents, uses and methods” (AFFINICON APS, priority 2009, dated 2017).

What was measured:
[1] = target: recombinant CD163 immobilized on a Biacore chip (Homo sapiens, UniProt Q86VB7); assay: Surface plasmon resonance (Biacore) analysis of mAb binding to immobilized CD163; details: 5 μg/ml
Method: SPR analysis of the binding of mAbs to CD163 was carried out on a Biacore 2000 instrument (Biacore, Uppsala, Sweden). The Biacore sensor chips (type CM5) were activated with a 1:1 mixture of 0.2 M N-ethyl-N′-(3-dimethylaminopropyl) carbodiimide and 0.05 M N-hydroxysuccimide in water. Purified recombinant CD163 were immobilized in 10 mM sodium acetate, pH 4.0, and the remaining binding sites were blocked with 1 M ethanolamine, pH 8.5. The SPR signal generated from immobilized recombinant CD163 proteins corresponded to 40-70 fmol of protein/mm^2. Sensorgrams were generated using mAb concentrations ranging from 5-100 nM. The flow cells were regenerated with 1.6 M glycine-HCl, pH 3. The running buffer used for the experiment was either CaHBS 10 mM Hepes, 150 mM NaCl, 3.0 mM CaCl2, 1.0 mM EGTA, and 0.005% Tween 20, pH 7.4. or 10 mM Hepes, 150 mM NaCl, 3.0 mM EDTA, and 0.005% Tween 20, pH 7.4, mAb samples were dissolved in the same buffer as the running buffer used. All binding data were analyzed using the Biamolecular Interaction Analysis evaluation program version 3.1.
SPR analysis of the binding of mAbs to CD163 was carried out on a Biacore 2000 instrument (Biacore, Uppsala, Sweden). […] All binding data were analyzed using the Biamolecular Interaction Analysis evaluation program version 3.1.

[2] = target: T1, CD163 on peripheral blood dendritic cells (Homo sapiens, UniProt Q86VB7); assay: Flow cytometry of CD163 expression on peripheral blood dendritic cells; assay type: cell-based; details: CD14-ILT3+HLA-DR+ dendritic cells
T1 construct: endogenous in cells; host or cells: human peripheral blood monocytes, monocyte-derived macrophages, blood dendritic cells
Excerpt: Freshly drawn peripheral whole blood samples (approx. 3×10^6 cells) were stained with isotype-matched control antibody (Mouse IgG1 PE, k isotype control, MOPC-21, BD Pharmingen™, San Diego, Calif., USA) or a relevant antibody (anti-CD3 FITC, UCHT1, BD Biosciences, San Diego, Calif., USA; anti-CD11c FITC, KB90, DAKO A/S, Glostrup, Denmark; anti-CD14 FITC, RMO52, IOTests®, Beckman and Coulter, Marseille, France; anti-CD16 FITC, 3G8, BD Biosciences, San Diego, Calif., USA; anti-CD19 FITC, SJ25C1, BD Biosciences, San Diego, Calif., USA; anti-CD20 FITC, CAT 13.6E12, Diatec.com A/S, Oslo, Norway; anti-CD56 FITC, NCAM16.2, BD Biosciences, San Diego, Calif., USA; anti-CD91 FITC, A2MR-a2, BD Biosciences, San Diego, Calif.; anti-HLA-DR FITC, EDU-1, Diatec.com A/S, Oslo, Norway; anti-CD163 PE, MAC2-158, IQ Products, Groningen, The Netherlands; anti-CD163 PE, GHI/61, BD Biosciences, CA, USA; anti-ILT3/CD85k PE-Cy5, ZM3.8, IOTests®, Beckman and Coulter, Marseille, France; anti-HLA-DR PerCP, L234, BD Biosciences, San Diego, Calif.; anti-CD4 APC, EDU-2, Diatec.com A/S, Oslo, Norway; anti-CD14 APC, 18D11, Diatec.com A/S, Oslo, Norway) for 15 minutes at room temperature in the dark. […] For CD163 density quantitation, flow cytometric estimation of antibodies bound/cell (ABCs) was performed using Quantibrite PE beads (Becton Dickinson, San Jose, Calif., USA) as recommended by the manufacturer. […]

Sequence of recombinant CD163 immobilized on a Biacore chip (Q86VB7 42-1156): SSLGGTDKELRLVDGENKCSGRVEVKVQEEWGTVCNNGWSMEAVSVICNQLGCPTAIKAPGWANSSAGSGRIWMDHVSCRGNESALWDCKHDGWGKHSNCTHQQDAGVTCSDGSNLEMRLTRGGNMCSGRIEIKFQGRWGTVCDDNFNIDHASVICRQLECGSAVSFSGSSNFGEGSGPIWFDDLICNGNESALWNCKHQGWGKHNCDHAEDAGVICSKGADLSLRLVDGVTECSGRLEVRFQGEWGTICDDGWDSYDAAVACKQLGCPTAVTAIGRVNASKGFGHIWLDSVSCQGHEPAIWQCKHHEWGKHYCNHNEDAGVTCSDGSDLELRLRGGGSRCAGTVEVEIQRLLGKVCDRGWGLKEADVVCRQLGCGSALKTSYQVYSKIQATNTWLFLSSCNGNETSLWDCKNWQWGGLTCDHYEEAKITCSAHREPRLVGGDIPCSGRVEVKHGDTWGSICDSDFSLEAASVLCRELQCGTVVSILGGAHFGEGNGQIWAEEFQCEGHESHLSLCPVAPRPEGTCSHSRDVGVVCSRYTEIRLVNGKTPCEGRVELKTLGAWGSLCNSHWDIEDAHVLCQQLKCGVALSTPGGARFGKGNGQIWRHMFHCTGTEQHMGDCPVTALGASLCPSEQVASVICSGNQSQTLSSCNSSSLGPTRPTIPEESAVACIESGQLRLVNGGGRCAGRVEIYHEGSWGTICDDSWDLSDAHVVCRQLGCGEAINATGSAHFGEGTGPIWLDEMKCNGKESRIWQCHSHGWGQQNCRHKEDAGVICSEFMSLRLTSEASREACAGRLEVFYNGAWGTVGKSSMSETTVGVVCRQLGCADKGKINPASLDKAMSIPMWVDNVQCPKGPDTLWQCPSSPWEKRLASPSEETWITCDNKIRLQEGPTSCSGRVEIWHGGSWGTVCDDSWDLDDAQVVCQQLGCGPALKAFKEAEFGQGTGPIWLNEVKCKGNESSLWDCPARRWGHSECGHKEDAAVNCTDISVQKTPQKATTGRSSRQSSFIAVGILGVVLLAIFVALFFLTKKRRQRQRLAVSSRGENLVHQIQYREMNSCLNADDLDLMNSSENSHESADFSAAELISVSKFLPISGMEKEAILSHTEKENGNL
T1 sequence (Q86VB7 42-1156): as above

B1: Mac2-158: murine anti-human CD163 mAb binding SRCR domain 1; VH SEQ ID NO:20, VL SEQ ID NO:21; IQ Products (antibody, V domains shown)
VH: DVQLQESGPGLVKPSQSLSLTCTVTGYSITSDYAWNWIRQFPGNKLEWMGYITYSGITNYNPSLKSQISITRDTSKNQFFLQLNSVTTEDTATYYCVSGTYYFDYWGQGTTLTVSS
VL: SVVMTQTPKSLLISIGDRVTITCKASQSVSSDVAWFQQKPGQSPKPLIYYASNRYTGVPDRFTGSGYGTDFTFTISSVQAEDLAVYFCGQDYTSPRTFGGGTKLEIKRA
modifications: Mac2-158 VH sequence; Mac2-158 VL sequence
notes: IQ Products
[1]
  affinity for human CD163, KN2/NRY compared with Mac2-158: Virtually similar affinities
[2]
  fraction of peripheral blood dendritic cells recognized as CD163 expressing: 32.3%
